Data reported in the domain aggregation screens of Martell et al. (2025).

Assay: soluble fraction after stress (log2 fold change); higher = more stays soluble; pooled small domains, quantitative proteomics
Conditions: stress: 50 degC
How it was run: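 The measure of aggregation propensity here is the base-two logarithm of the fold change in the soluble amount of each protein after stress. A higher value means more of that protein stays in solution. Stress was applied at 50°C to pooled libraries of small protein domains, read out by high-throughput quantitative proteomics.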

Sequence	soluble fraction (log2)
HMVSLNKTEFIAVKKASASELRDKINSLGLDVLKDATISADARTNQIIATGPKYALEQIKMLVVGLDVSS	0.0771
HMRMTLKNKVEDIVHILRKDKQTSLSAILGDNTDRIQTIVVFLAILELVKQHLIKTDQNANFGDINLFPED	-0.0677
HMDKGEQILQQALDKLPPKQRQVFEMRYFDEMPYREIATITETSEGALKASYHHAVKKIQQYISHL	-0.397
HMNRNHVFDSNGPDLRLRGTAQQLFEKYLQLGRDATSGGDRVMAEGYFQHAEHYFRILNAMNQAAMQH	-0.68
HMTNVDELIGKEAVVVKEIRPYTTGEVKLDGKVWRAMSESKQVYKVDEIVTVLRIEGVTMII	-0.419
HMYMWQVEDLIRANGLDIERIKDSIIRPYELDEERKRELTQWYEDLIDMMRREGVAQSGHLQIN	-2.45
HMPASGISSEIIYDGILIEENLRQLKKDKAWLMDQLKKKGISSVSEVFLATLNKGGSLYIDKY	-0.0117
HMLGERIRRLRKEMGMSVTELARRVKTSPSYISEIEKGEKTPSLNLLVRIASELRTGIDYLTGL	-0.294
HMDLAENWKDDADITLAEYNAIRSRYKPGKLHRDTEFMIARDMLIRPETVLAIAHSRFSNVHTHPV	-0.945
HMEGNWGLWAKVPNRFAALTTDKDSALRRFKSKEDGEAWMASHGLKPERFDVLEIPADYKPA	0.0433
HMVNIPEIAKKFGKSTSEVFEQIQIGEKHEMEHTNDPKKARKIALDHLSDDMDYYKKLKKLG	0.27
HMTPVKAPLPGVVTKINVSVGQQVKKGENVLVLEAMKMENNIAAEADGTVSGIAVKAGDSVLEGAVLLTI	0.184
HMKIVQHQLQLPVHVAGKFKGMFYKSDFVMSEDYDDDGNMILAVRLPLVDWNKFLKRTDNELSQYIKVTP	-0.858
HMLGAGFDSDLTARENIFLNGALLGHSRAVMRGYYDDIVNFAELHDFMDVPVKNFSSGMTSRLAFSIATIG	0.00802
HMSPLPDRESLGAIEKLISLLGSSEWTVREKATRELGAFGYLARPVLQRELATSGDPEVSRRLERILSNL	-0.332
HMYEDNERNLYSVVINFLNEHKIKISREAINLVINRSSGDKHNLKQELNKILNYSFSNKNITYETIEKLSN	-0.585
HMAQILEPSVALKKLLELKQAGFEDETLVGWIRKVEFTRPLTPDDLLEWKGAGISQAVIRAAM	-0.0938
HMQTMNKTNISNFEKYLNSGDVSEVIVVRNKSSVRVTLTPEALRSSEHQAVVGKNILGQENIKGPHYQFEV	-0.0672
HMDSAQLARWAATILAQNGRKITPSTMNLFLERVGDDMENIRMELEKLISYTMGSEVVTAEDVKVITTVQ	-0.569
HMSTVEKDSELGGNFRIASYPTGKGQISEAIRSMIVRAKQVGVNIRLNTEATEEPLRALAPNAVILATG	0.0325
HMNQIDEATAATITTLNFLNTNSEFKIPVGDTATRPGTPAIGMMRFNSENDKAEIYVADFDGDGNPGWINL	-0.189
HMKMLKAPIPGTIIEVKVNPGQTVNDGDVAVVLEAMKMESDIHFNSSGKVKKIHVNKGDSVQEGDDLIELE	0.0938
HMSPIQLKYNEYLIYIDEGKINTAEIHGNKITGKLKEGSEYVVTIYPELIASITEKLAENNVQTQLIQ	-0.0206
HMNKTLTEQIYDELKSAIIELELKPGEFVTEEYLAEQLGVSRTPLKSAISKLIFEGLMAYEVGKGTYIS	-0.747
HMGTLRPKGTVVFANLPIAADAKEGDMYNISDQFTTTASFKEGAGNVIPAGSNVYRTDDGFWDVL	0.00637

Sequence	soluble fraction (log2)
HMLPDDDMLLNILTKLLIDKQFVINSHEIFDFIIKRANRSYEEMFILVNKLDQLSLEKKRQLTIPLIKEI	-0.652
HMKSVTAPLPGTVTQILVKVGDAVKAGDTVLMLEAMKMENSITAEAAGTVKAIRVEKGAQVQGGDVLIEM	0.156
HMGEESIAELISNPKLSDAKRTVILDLLSRGLTVDQIKPYIQSDDPYTAEQLQFELYKLFFTQI	-0.228
HMQITQSSEPIDVSALRLGMFIHLEGGWLSHPFPRSSFKITSEDQLVTLRSLGISVLRWSPELSDPE	-0.834
HMSEILQLINKIDKKLEKGYTFANISRNHYEKIYKEEILNLYKTSKLKGEAEDSIKEVLESLLGDLRKP	0.0222
HMEKGLQYRRTDRAIMNAFIKLVNQGSFEKLTVQEILDEALVSRNTFYAHYRDIYDLMDALSN	-1.55
HMDNLSQMQERILEFIIRSKDQSGYTPSLREIGDEVGLKAVSSVKYQLEQLKDAHYISFDANTARAIRVLI	-1.7
HMEPELLTTKQVASVMNIGEERARAILLSRGVQPVSLPWGKERKTLRWSRRAVMTVIDTLHAEAQAKAGV	-0.582
HMTDMYLTYQELRHLGVSQNLISMWKSRKSIDFHMLGGTLYVRYMSIPEQTRSKLALQNVERVYNSRE	-2.55
HMSEKYPPIDWNNIKTGQSVLIKDINQVVSLTKLPDSKGFAEVQMGLIKTKIKAEKLAATDKKPNK	0.0917
HMSIGLEELVGSHGEAITDLRPAGQVSIAARRISAVSEGDFINKGDSVEVLSVEGYRVMVRKLET	0.00441
HMPPSVAETLKRLRRHKSLSLEELAQMSGVSRSMLSQIERDATNPTVATLWRITAALGVSIDEVLGV	-1.87
HMEPAPPPAAPPADPELQKRIDKLVEYIGKNGPEFEAVIRDKQHDNPDYAFVFGGEGHAYYRYLLWLLPRP	0.00294
HMGIIYGKNPVLEAISSGTTINKIYAQTSNKEIDSVIKEALKRKIIVVNTDKQKLDKMIDGKNSQGIIASI	0.317
HMIQRLNVNTEVLSTYIRNSNTPIEYLRQKLPNIDKFLKGELEPTFNQVYALSKLINIPTGLLLLKEPIS	-0.995
HMQFAEIPNFSEMALQILRLQADGLSITKIAEALHMNPRTVKYHAQENYRKLQASNKSEALLAARNLNL	-1.3
HMDSERTALLSSDRTSFTAREAALLIGVSQRDIYRMIEDELLDSFTVGKMIRIRRSALEWWLS	-2.92
HMRAPETEITYTEFKTALRAGQIETATVGIEQISGKLTDGDLYRTVRVDDPDLLKDLEANHVNAAGRV	0.104
HMATAATGIINNNYVNVRSGPATTYNIVGRLDQGSSIEILGSKNDWYQIKTKQLNGWVKNDFINLQK	0.00222
HMSEISAEAGKRIRYFRKSRSMTLEELAAVIHKSKATLSKYETGEISIDLDTLYDLAVALQVRAEQLLPAS	-2.29
HMQPRYMLIKTAILDAIERGEMKPGSQVPSENQLAQQHNVSRMTARRALSEMVDDGILMRSQGIGTFVSD	-0.0879
HMDFSVTIKGTSFPVMVSLKKMKQVRLKVFPSGEIKLSAPVGTPEKWIVEYLNDKMSWIEEKMDLFVQ	-0.787
HMNLPISDREKELLTLLSKGLLYKEIASKLDITIGTVKQHIHNIYHKLHVSNKTEALNLFNK	-0.685
HMQVPDLYRTLGVGRDATTEAIEAAYVGWQARLSAGEPISTQEWERLRYAHEVLSNPQRRSLYDSLVAET	0.0709
HMVDIQTGQKVRIHTSQFAGKIGNITALNVKSAELPNGIRTATASILMQSNENVMLPVSNFDIIE	0.0434

Sequence	soluble fraction (log2)
HMPSTVSVPDVAGSSLSEAKTTIKSSGLKVGTVHKVSSDTVESGYVIKTSPTAGSSKKEGSSIDIYVSKG	0.432
HMTPAPHESLTDREMEVLKLLAQGLSNQEIADKLFIGVKTVKYHITNIFSKLGVEDRTQAAIYAHKQGLA	0.0163
HMERFMEFVITDTQQGQRLDVVLTETTEHLGSRSHMQRSIRAGLVSIDGITTTRASTKVSSGQIIRVEPT	-1.49
HMDTIYMVVAKNIKYYRLIKSMSKKDLAEAVNVTPMAISNYENGKRKPEIDILKKIANVLGVRVVDFLTVR	-1.73
HMVPVSIYAYNKIKTAILNNELMPGEKLVEASLAETLNMSRTPIREALRQLEQEGFVTYYPQKGSIVSH	-0.657
HMKDESQLVGAEGKAVTPLRPTGVALIGEKRLDVLTEGEFIPRNSDIIVSRVEGNKIIVKLKN	0.177
HMSILSIGLERGMKKGVAWGIAKSILDILEETGPVSEKTREMIVTETDAERLSAWVKKAARSNSEEDFLSK	-0.631
HMARDDVIRLVQLSLDHLPAKYADALEWKYVEGLSTKEIAARLELGSEAAESLLARARRAFKNDFQEIFES	-1.41
HMEMTGAHLRKKIRAKGFTFQQIADAIGESKQNLSQILSTNNIKTGTLERIAAAMGESVSYF	-0.191
HMFMLQAKRVPVSELENFKGIVAEDVVSQSRALILPRGSNLSWLSSSAMQNLSTRLALEGVESISIYL	-1.43
HMDVAAQITYAMRTMGVAPIPRNYELFYEAYIGSNPALTKELAALGSKATQEELDELGQQYF	-1.93
HMHAPKIIVLTINPDKIRDVIGPGGKMIKSIVAATGVKMDVEDDGKIHISSSDQKAADEAIRMINEITAEA	0.0184
HMNTQGWEIFEGRITTADTDLNPSGWIRIDGQRIFVISDAGFIDKGKEVSILSVDGNRVLVRK	-0.641
HMSNIIIYPNPTNDGLIHIKGSKFPFNYALYNLSGKLIETGKKNQIQLNDRGVYLLKIQTEGQTYFKKII	0.272
HMGSFGAMLKRNRKLAGLTQEQLAEKLDVSTVAVQNWESGKNQIRSEKLTKLSYLFNIPLETLIHEMLIS	-0.951
HMPSTKDGIKEFLSSGAMKGIGRKTASAIVSRFGIDTLKIIEQEPQRLTEVSGIGKKTAQRIAEAFGKH	-0.103
HMQIVPVDYSTFMQSIDDKTVDHVEIQSNQILYTVKDDHKKYKTGIMNDPTLAQRLMESGATFTQD	0.0939
HMNVDSIPGKSGIVTQGIDNLKAMGRVTVNGMEWTARSKDGSLIEEGKVVRVYGVEGVKLIVEED	-0.0306
HMNDLKVGELAKRGNVTAETVRHYTREGLLSPTRHPDNGYQLFSATDLERLHFIQRARKLGFSVAEIRDIL	-0.619
HMGDVSGFLRGVLADGPVPAKTVFSEASGAGYSRDQIQRAARKIGVERRKTGMAGGWVWELEP	0.014
HMVQQAVNMAKPGKLFTGPSPTSKALRDLDAGAMLYPTGEKQGPFWKVQDELGNEGWVAMGLLQLA	0.175
HMRNLFWTEAQNAQNELNAMRINALTQSIRRIEPNFRGIPSLRDPNRPIPNEEVRDYENYLNRILP	0.119
HMPLQLPEPMAELARNGETARLAEALKQGLDIDLRDGKGNTLLMIAAYQGRAETVAMLLKAGA	-1.71
HMDSDRAARLSSLTPQQFRVLRMVSEGQLNKQIAYQLNISEATVKSHVSAILQKLGVNSRTQAVILATRLD	-2.01
HMPTEPTARELEVTTLLAQGLSNREIAGALFISEHTVRNHLGHVFSKLGVSSRTQAVVRAGQLGWLR	-2.14
